Laboratory results as given in the supplement of paper PMC12764529.
± gives the half width of the 95% confidence interval.

How the values were obtained:
[1] = folding stability dG unfold (combined trypsin and chymotrypsin); higher = more stable
Procedure, shortened: (§1)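 K50 was inferred by Bayesian fitting of sequencing counts obtained after protease digestion of designed mini-proteins. Unfolding free energy was derived by comparison with a sequence-predicted unfolded-state K50 and a shared folded-state K50, for each protease or both combined. The mini-proteins were under 80 residues, had no cysteine, were carried in a PA-tagged cDNA display construct, and were kept only if AlphaFold2 dimer inter-PAE exceeded 15.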

[2] = folding stability dG unfold from trypsin proteolysis; higher = more stable
Procedure, shortened: as §1

[3] = folding stability dG unfold from chymotrypsin proteolysis; higher = more stable
Procedure, shortened: as §1

| Sequence | folding stability dG unfold [1] [kcal/mol] | folding stability dG unfold [2] [kcal/mol] | folding stability dG unfold [3] [kcal/mol] |
| --- | --- | --- | --- |
| SAGGSAGGSAGGVKPGQKVKVEIDGKTYEATVDEKNGTIYVTLPNGKKYKAKIVKVEKVSAGGSAGGSAGGS [r10_1185_TrROS_Hall] | 2.38 ± 0.12 | 1.79 ± 0.18 | 2.64 ± 0.05 |
| SAGGSAGGSAGGVPPESVLLSEEKVGGKTVEIVRDPATGKLYRVTKVPGSDSIEVEELGLSAGGSAGGSAGG [r7_179_JUSTAS] | 2.43 ± 0.092 | 2.2 ± 0.093 | 2.549 ± 0.013 |
| SAGGSAGGSAGGVTIVIGTDKDIPAEVIEKEVADELLKAGIPPDVKVNVVVVPIDPDALSAGGSAGGSAGGS [r10_746_TrMRF] | 1.11 ± 0.1 | 1.1 ± 0.042 | 1.17 ± 0.087 |
| SAGGSAGGSAGGWIRSPGGWWVNIDIEIFEIPIDKNMSPEMANKFKRVRIIVIEITVVKRSAGGSAGGSAGG [r7_324_TrROS] | 3.84 ± 0.25 | 3.31 ± 0.16 | 4.7 ± 0.15 |
| SAGGSAGGSAGGWRTVWIRMPPGQSPEQAVDEIKDHFPPGEPIEVEYHPNDGFFRVKIPSAGGSAGGSAGGS [r10_163_TrROS] | 0.668 ± 0.077 | 0.654 ± 0.08 | 0.546 ± 0.22 |
| SAGGSAGGSAGGWYVQIKFPNNPIYISAEEIRDNPEVLKELEDEGYPIKNIEVMKPGEGSAGGSAGGSAGGS [r10_396_TrROS] | 0.241 ± 0.14 | 0.526 ± 0.082 | -0.5 ± 0.29 |
| SAGGSAGGSAGGYSAIIIFPTEFDNKLYYAAVELESPSEELHEGDIKSVILAPLNTPILSAGGSAGGSAGGS [r10_730_TrMRF] | 1.64 ± 0.046 | 1.93 ± 0.096 | 1.41 ± 0.043 |
| SAGGSAGGSAGIEAVVKELEELGYEVEATPEPDGSVVIEVTLKNGEKLTVRVGPFGGVEASAGGSAGGSAGG [r17_503_TrMRF] | 2.24 ± 0.13 | 2.21 ± 0.14 | 2.2 ± 0.071 |
| SAGGSAGGSAGIEKTKDGVYKITIYNPSTGKKTEIYVPSSAPYVAGPVVLELVKNKAIIESAGGSAGGSAGG [r11_538_TrMRF] | 0.47 ± 0.055 | -0.296 ± 0.074 | 0.802 ± 0.11 |
| SAGGSAGGSAGIIVRLPDGGWLIIDITMTRKYPPPDGKPKKVEFEFTIIISPKSGKIRIVSAGGSAGGSAGG [r11_271_TrROS] | 3.01 ± 0.26 | 2.94 ± 0.2 | 3.21 ± 0.15 |
| SAGGSAGGSAGIKTESLEEALEYVKKTFPPGTKVEIVVEGDGKPIKITVTVLENGEIKVESAGGSAGGSAGG [r17_69_TrMRF] | 3.58 ± 0.12 | 3.97 ± 0.16 | 3.24 ± 0.036 |
| SAGGSAGGSAGIRIKAFPGWKIVDIEPNPPGTIIIRYPNWVFQIRIRPNGEIEIRIVPLDSAGGSAGGSAGG [r11_612_TrROS] | 3.49 ± 0.083 | 3.09 ± 0.093 | 3.64 ± 0.055 |
| SAGGSAGGSAGIRIYWDPENGWYRVKYPDPDGKPVDEHPMPPDQLPEFLQAGNIEVEPWPSAGGSAGGSAGG [r11_159_TrROS] | 1 ± 0.095 | 0.759 ± 0.035 | 1.27 ± 0.081 |
| SAGGSAGGSAGITIRDPDNGMWIQIEKTPDMFKVEIEMPGNGKKVEFTFPPGQSLDDLKISAGGSAGGSAGG [r11_772_TrROS] | 0.571 ± 0.12 | 0.508 ± 0.037 | 0.473 ± 0.085 |
| SAGGSAGGSAGKAVFIRELENGAIVLAVPFPDSVRLRVFPLTPGGEVESVEEFTLAPEELSAGGSAGGSAGG [r11_88_TrMRF] | 0.591 ± 0.08 | -0.0256 ± 0.16 | 0.842 ± 0.088 |
| SAGGSAGGSAGKEIKVETEENPNGQHPVKIEIYDGGNPRPIEFPVDSPEDAEDWAKELLKSAGGSAGGSAGG [r11_560_TrROS] | -0.0496 ± 0.079 | -0.595 ± 0.074 | 0.148 ± 0.031 |
| SAGGSAGGSAGKEKEIIIKVKVTKDKNGKYKIDIEELKKLFPNVKITEIKDNYIKIKVKKSAGGSAGGSAGG [r11_771_TrROS_Hall] | 1.75 ± 0.31 | 1.63 ± 0.1 | 2.11 ± 0.13 |
| SAGGSAGGSAGKHTFNIKDIEIKEVVPSNNYYVVRIEMTFPDGKEHKFTFYFPPGDPITLSAGGSAGGSAGG [r11_211_TrROS] | 2.53 ± 0.14 | 1.97 ± 0.055 | 2.87 ± 0.085 |

| Sequence | folding stability dG unfold [1] [kcal/mol] | folding stability dG unfold [2] [kcal/mol] | folding stability dG unfold [3] [kcal/mol] |
| --- | --- | --- | --- |
| SAGGSAGGSAGKIEVTYNKENNTFTVKIVNKKTKKVITIKVKAKSKEDALKKVKELLEKLSAGGSAGGSAGG [r17_386_TrROS_Hall] | 3.11 ± 0.19 | 2.79 ± 0.17 | 3.32 ± 0.078 |
| SAGGSAGGSAGKIIEELKKKGYKVEVIKDKKTKKYYVKITVTDKKGNKKTITIPLKDIKPSAGGSAGGSAGG [r17_311_TrROS_Hall] | 3.71 ± 0.35 | 2.8 ± 0.23 | 4 ± 0.21 |
| SAGGSAGGSAGKIIFERDEDGYLRAIVYDPKTKEVYVRRFKVKDGKITEVETERINLKDLSAGGSAGGSAGG [r11_167_TrROS_Hall] | 2.21 ± 0.1 | 2.06 ± 0.049 | 2.37 ± 0.078 |
| SAGGSAGGSAGKIKITEIHFMPNGMVVVEIEFEDPDGETFNLTVVFRFDPNGKIRDIHIMSAGGSAGGSAGG [r11_709_TrROS] | 4.22 ± 0.17 | 3.35 ± 0.15 | 4.35 ± 0.07 |
| SAGGSAGGSAGKIKIVKDEKTGEYKLVVYDKNGKKVKTITLSKEELEKNPELLKKLLEELSAGGSAGGSAGG [r17_496_TrROS_Hall] | 4.51 ± 0.17 | 3.52 ± 0.27 | 4.56 ± 0.15 |
| SAGGSAGGSAGKIVILVEPSVEELKAAAEALPGAKVTLEEVEVDGRKYLLATIELPPELLSAGGSAGGSAGG [r17_542_TrROS_Hall] | 2.23 ± 0.07 | 2.17 ± 0.074 | 2.27 ± 0.033 |
| SAGGSAGGSAGKKIIIKVKPNMTPEEIAKKLAEELGVEVEIKKVKKLKNGELYIEIEIKPSAGGSAGGSAGG [r17_222_TrROS_Hall] | 2.82 ± 0.3 | 3.09 ± 0.17 | 2.48 ± 0.19 |
| SAGGSAGGSAGKKIKVRIKVKDPETNEYYEIEIEAETEEEALEALKKLFPNVKKVEIVPASAGGSAGGSAGG [r11_25_TrROS_Hall] | 3.18 ± 0.15 | 3.26 ± 0.11 | 2.69 ± 0.11 |
| SAGGSAGGSAGKKKIIILINENMKEEEIVDYIKKKYGKNVKIEEIIPISPNIKIIKVIIDSAGGSAGGSAGG [r11_580_TrMRF] | 4.02 ± 0.14 | 3.96 ± 0.12 | 4.01 ± 0.17 |
| SAGGSAGGSAGKKKIVFLVEDPEEALKTLTFPKDANIEIEKIEVKPLPNGLYEVVIYLKNSAGGSAGGSAGG [r11_150_TrMRF] | 4.29 ± 0.24 | 2.76 ± 0.081 | 4.59 ± 0.1 |
| SAGGSAGGSAGKKKKKKPKKVKSVKIKITIKNKNGEKKEITVTFNKDGKLTLEEIKKLLKSAGGSAGGSAGG [r11_759_TrROS_Hall] | 2.28 ± 0.21 | 2.22 ± 0.056 | 2.51 ± 0.12 |
| SAGGSAGGSAGKKKLVIEQRPDGLVRIRLPNGKVLEVSREELEELAKELGIDKVEIYPVPSAGGSAGGSAGG [r11_312_TrROS_Hall] | 1.83 ± 0.05 | 1.58 ± 0.025 | 2.067 ± 0.019 |
| SAGGSAGGSAGKKKLVVVVDPEEPGRVRIYRDGKVIEMSLEELKKLGIDEVVSVEELLAKSAGGSAGGSAGG [r17_88_TrROS_Hall] | 1.96 ± 0.09 | 1.03 ± 0.04 | 2.34 ± 0.026 |
| SAGGSAGGSAGKKPEKYILIKVKKEDVEKLLEAIKKLLPPGAEIVKIEKTPEYVYIVVKLSAGGSAGGSAGG [r11_698_TrROS_Hall] | 4.21 ± 0.086 | 3.39 ± 0.13 | 4.38 ± 0.07 |
| SAGGSAGGSAGKKTLPTYDPKKGKISLIVIEDKEGKEIVFEAFGDGKEFIEAAKEFEKKISAGGSAGGSAGG [r11_119_TrMRF] | -0.0388 ± 0.099 | -0.463 ± 0.12 | 0.182 ± 0.064 |
| SAGGSAGGSAGKKVTLKVLVKNENGKLYMFEAEYEFDENGKLVKVKVKVYEVEVKDLKLPSAGGSAGGSAGG [r11_1019_TrROS_Hall] | 2.86 ± 0.16 | 2.66 ± 0.13 | 3.02 ± 0.039 |
| SAGGSAGGSAGKKYLIKIEVEKNGKKYTITMSLEELKKLISSPNVKIVKIEIVEVSEEDLSAGGSAGGSAGG [r17_204_TrROS_Hall] | 4.98 ± 0.11 | 4.33 ± 0.15 | 5 ± 0.07 |
